Data as given in paper PMC5774586.

B1: FOXA1-Venus, P55317 1-472 (natural protein)
chain: MLGTVKMEGHETSDWNSYYADTQEAYSSVPVSNMNSGLGSMNSMNTYMTMNTMTTSGNMTPASFNMSYANPGLGAGLSPGAVAGMPGGSAGAMNSMTAAGVTAMGTALSPSGMGAMGAQQAASMNGLGPYAAAMNPCMSPMAYAPSNLGRSRAGGGGDAKTFKRSYPHAKPPYSYISLITMAIQQAPSKMLTLSEIYQWIMDLFPYYRQNQQRWQNSIRHSLSFNDCFVKVARSPDKPGKGSYWTLHPDSGNMFENGCYLRRQKRFKCEKQPGAGGGGGSGSGGSGAKGGPESRKDPSGASNPSADSPLHRGVHGKTGQLEGAPAPGPAASPQTLDHSGATATGGASELKTPASSTAPPISSGPGALASVPASHPAHGLAPHESQLHLKGDPHYSFNHPFSINNLMSSSEQQHKLDFKAYEQALQYSPYGSTLPASLPLGSASVTTRSPIEPSALEPAYYQGVYSRPVLNTS

Tests used:
[1] = biological target: FOXA1-Venus (UniProt P55317); assay: FRET or BRET
[2] = biological target: T1, ESR1-Cerulean, P03372; assay: FRET or BRET; conditions: remark: other sources report otherwise
T1 chain: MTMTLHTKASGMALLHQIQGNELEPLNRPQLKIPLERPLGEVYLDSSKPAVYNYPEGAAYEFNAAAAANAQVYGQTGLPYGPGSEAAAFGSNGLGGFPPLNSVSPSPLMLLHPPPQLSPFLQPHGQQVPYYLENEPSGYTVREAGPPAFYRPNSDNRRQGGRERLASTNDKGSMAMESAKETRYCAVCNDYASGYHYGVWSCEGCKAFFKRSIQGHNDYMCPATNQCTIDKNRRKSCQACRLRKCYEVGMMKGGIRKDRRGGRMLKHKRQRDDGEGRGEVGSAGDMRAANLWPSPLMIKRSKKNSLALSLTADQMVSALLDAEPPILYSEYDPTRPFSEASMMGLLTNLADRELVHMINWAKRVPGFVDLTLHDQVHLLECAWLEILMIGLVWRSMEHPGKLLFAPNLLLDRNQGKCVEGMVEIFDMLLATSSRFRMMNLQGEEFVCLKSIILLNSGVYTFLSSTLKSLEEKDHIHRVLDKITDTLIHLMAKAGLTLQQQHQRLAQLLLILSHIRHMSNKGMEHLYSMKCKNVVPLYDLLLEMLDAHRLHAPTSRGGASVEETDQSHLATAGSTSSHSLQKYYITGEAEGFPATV

Molecule	FRET efficiency [1]	FRET efficiency [2]
NFIB-Cerulean (from UniProt O00712 1-420) (natural protein)	0.055	
B1		0.139
